Data taken from patent US20040121956A1 (PHARMACIA AND UPJOHN, published 2004).
Where no end group is shown, it is not given here.

T1: DmGPCR1 (PnuFlyPep34651) (Drosophila melanogaster)
T1 chain: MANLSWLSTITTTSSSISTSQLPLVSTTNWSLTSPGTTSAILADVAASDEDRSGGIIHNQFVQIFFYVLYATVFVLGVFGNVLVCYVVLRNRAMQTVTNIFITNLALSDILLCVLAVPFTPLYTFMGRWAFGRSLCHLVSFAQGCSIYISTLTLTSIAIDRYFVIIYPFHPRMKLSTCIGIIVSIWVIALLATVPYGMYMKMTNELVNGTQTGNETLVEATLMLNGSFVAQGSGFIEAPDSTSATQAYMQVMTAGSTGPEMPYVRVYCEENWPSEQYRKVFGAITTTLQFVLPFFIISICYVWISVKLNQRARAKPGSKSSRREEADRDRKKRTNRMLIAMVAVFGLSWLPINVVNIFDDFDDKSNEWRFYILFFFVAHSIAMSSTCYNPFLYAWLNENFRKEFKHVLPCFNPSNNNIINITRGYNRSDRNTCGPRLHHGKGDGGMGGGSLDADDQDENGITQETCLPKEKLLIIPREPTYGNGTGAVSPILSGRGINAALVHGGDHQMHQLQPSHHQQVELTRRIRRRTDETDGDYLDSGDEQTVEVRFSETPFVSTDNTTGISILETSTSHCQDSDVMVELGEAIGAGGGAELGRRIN

T2: DmGPCR6a (M811490) (Drosophila melanogaster, UniProt P25931 1-464)
T2 sequence (looked up): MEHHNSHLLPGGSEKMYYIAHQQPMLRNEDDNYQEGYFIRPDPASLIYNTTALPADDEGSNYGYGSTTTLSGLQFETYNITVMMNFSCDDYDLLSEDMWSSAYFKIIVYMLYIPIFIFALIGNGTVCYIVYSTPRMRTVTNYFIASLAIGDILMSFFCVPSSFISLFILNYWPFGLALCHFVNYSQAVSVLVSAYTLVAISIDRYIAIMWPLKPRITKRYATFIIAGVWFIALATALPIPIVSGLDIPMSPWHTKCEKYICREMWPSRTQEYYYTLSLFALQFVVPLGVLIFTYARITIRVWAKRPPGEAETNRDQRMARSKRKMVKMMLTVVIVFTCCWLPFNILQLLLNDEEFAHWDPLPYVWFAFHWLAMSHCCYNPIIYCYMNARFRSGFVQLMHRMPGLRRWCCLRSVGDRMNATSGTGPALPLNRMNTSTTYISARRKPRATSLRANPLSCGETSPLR

B1: ARGPQLRLRF-NH2 (peptide)
peptide: ARGPQLRLRF-NH2
B2: human NPFF (FLFQPQRF-NH2) (peptide)
peptide: FLFQPQRF-NH2

How the values were obtained:
DmGPCR1 (PnuFlyPep34651) = target: T1, DmGPCR1 (PnuFlyPep34651); assay: cell-based or functional assay
DmGPCR6a (M811490) = target: T2, DmGPCR6a (M811490); assay: cell-based or functional assay

| EC50, FLIPR assay (DmGPCR1 (PnuFlyPep34651)) [nM] | GTPγS binding, fold increase, 5 µM NPFF (DmGPCR6a (M811490)) [fold] | Binder |
| --- | --- | --- |
| 100 to 200 |  | B1 |
|  | 4 | B2 |
